US20220332804A1 (CSL INNOVATION, published 2022)

Tests used:
Test in all cases: SPR, KD relative to WT C2;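 further: biacore SPR at 37 °C, anti-C2 mAbs captured on anti-human IgG chips with alanine or serine point mutants of C2 as analyte, KD from 1:1 fit compared with wild-type C2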
[1] = biological target: T1, human C2 F689A (human, UniProt P06681 21-752)
T1 sequence: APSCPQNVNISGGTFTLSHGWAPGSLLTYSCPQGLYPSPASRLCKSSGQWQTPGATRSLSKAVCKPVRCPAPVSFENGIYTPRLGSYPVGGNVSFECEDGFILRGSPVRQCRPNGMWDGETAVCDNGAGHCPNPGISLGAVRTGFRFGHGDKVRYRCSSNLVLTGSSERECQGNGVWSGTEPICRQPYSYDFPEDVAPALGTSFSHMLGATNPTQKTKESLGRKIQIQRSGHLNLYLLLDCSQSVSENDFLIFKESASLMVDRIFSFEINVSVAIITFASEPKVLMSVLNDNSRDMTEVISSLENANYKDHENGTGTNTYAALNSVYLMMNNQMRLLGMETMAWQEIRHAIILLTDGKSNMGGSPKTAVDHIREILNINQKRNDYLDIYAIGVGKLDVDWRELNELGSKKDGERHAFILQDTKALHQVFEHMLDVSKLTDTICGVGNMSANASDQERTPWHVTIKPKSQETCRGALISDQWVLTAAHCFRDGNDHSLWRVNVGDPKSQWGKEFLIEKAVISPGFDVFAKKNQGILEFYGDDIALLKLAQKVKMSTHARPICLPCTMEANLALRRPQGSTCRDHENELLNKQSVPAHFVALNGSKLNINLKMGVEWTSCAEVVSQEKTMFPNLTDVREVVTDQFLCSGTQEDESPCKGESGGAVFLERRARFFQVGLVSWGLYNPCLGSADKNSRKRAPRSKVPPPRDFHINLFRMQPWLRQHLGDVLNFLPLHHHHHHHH

[2] = biological target: T2, human C2 H451A (human, UniProt P06681 21-752)
T2 sequence: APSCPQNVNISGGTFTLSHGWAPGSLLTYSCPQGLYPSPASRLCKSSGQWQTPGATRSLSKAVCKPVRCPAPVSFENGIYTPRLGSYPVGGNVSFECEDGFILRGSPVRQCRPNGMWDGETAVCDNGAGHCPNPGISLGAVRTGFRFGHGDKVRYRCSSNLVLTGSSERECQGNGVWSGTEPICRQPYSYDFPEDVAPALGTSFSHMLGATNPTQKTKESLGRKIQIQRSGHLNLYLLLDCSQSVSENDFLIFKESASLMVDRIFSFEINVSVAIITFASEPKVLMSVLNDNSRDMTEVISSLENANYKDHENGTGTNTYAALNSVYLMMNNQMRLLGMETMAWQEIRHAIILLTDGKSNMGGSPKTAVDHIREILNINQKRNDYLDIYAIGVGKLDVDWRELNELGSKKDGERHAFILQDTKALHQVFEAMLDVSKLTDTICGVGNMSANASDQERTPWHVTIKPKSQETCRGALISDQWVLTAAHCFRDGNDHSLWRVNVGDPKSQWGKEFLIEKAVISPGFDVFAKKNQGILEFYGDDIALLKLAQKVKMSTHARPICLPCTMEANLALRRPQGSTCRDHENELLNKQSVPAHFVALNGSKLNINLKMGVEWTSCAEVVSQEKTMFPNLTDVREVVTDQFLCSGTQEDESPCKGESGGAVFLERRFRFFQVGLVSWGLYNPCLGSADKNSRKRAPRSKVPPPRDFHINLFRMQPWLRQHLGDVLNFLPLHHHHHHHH

[3] = biological target: T3, human C2 H331A (human, UniProt P06681 21-752)
T3 sequence: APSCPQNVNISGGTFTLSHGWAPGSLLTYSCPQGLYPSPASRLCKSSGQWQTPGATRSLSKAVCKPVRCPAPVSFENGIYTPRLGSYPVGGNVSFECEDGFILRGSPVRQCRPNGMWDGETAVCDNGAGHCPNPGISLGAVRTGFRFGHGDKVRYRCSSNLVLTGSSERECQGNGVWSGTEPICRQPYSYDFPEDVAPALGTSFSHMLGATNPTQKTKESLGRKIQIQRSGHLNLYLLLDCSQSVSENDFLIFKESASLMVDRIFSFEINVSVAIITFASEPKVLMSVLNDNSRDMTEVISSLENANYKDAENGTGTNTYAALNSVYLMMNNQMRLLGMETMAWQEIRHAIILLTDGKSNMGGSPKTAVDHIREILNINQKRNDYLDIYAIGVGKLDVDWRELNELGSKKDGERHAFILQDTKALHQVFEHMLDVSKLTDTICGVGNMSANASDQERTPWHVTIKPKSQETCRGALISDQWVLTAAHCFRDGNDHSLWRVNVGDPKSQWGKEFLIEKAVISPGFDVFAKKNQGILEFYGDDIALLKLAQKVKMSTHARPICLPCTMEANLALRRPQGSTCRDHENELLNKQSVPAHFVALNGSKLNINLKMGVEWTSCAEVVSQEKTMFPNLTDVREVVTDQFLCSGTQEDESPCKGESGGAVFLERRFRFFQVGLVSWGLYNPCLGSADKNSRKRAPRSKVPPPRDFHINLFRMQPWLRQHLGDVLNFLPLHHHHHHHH

[4] = biological target: T4, human C2 E476A (human, UniProt P06681 21-752)
T4 sequence: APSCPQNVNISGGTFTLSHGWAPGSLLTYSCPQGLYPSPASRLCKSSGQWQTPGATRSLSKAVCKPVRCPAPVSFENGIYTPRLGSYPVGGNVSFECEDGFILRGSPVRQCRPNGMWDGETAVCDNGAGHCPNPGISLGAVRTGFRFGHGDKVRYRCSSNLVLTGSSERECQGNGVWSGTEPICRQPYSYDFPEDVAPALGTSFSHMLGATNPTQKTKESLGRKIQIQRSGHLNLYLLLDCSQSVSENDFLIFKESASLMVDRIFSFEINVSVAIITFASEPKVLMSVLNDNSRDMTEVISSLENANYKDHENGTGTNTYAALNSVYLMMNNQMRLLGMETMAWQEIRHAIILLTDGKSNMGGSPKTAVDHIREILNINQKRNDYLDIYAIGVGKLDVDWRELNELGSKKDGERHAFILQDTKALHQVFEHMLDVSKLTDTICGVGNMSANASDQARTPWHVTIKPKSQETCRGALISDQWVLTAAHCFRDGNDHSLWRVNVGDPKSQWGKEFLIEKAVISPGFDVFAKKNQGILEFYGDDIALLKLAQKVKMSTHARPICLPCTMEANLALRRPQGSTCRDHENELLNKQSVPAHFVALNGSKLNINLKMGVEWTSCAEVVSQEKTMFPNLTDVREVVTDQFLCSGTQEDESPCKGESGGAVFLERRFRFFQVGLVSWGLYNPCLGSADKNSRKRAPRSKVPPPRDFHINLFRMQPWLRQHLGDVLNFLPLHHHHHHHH

B1: RF16-242 (antibody, human IgG4 S228P, lambda, V domains shown)
VH: EVQLLQSGAEVKKPGESLKISCKGSGYSFTSYWIGWVRQMPGKGLEWMGIIYPGDSDTRYSPSFQGQVTISADKSISTAYLQWSSLKASDTAMYYCARRGHYGDYFDYWGQGTLVTVSS
VL: SYELTQPPSVSVSPGQTARITCSGDALPKKYAYWYHQKSGQAPVLVIYEDRRRPSEIPERFSGSSSGTMATLTITGAQVEDEGVYFCYSRDRAGNQRVFGGGTQLTVLG
notes: pH-dependent anti-C2 antibody from a phage display library
[1]
  Fold diff: 1 fold
[2]
  Fold diff: 3 fold
[3]
  Fold diff: 27 fold
[4]
  Fold diff: 2 fold
